Tests used:
[1] = molecular target: T1, human PD-L1-Fc (R&D Systems) (human, UniProt Q9NZQ7 19-239); assay: SPR (Biacore 8K): human PD-L1-Fc amine-coupled on a CM5 chip, AFFIMER as analyte, 1:1 Langmuir fit
T1 construct: Bought reagent; also called huPD-L1-Fc; huPD-L1; not shown: Fc part of the bought fusion

[2] = molecular target: T1, human PD-L1-Fc (R&D Systems); assay: human PD-L1-Fc binding ELISA: huPD-L1-Fc coated, anti-cystatin A detection
[3] = molecular target: T2, human serum albumin (HSA) (human, UniProt P02768 25-609); assay: SPR (Biacore): immobilized ligand HSA (Sigma # A3782), AFFIMER as analyte, pH 7.0 by the legend
T2 construct: The assays used bought HSA (Sigma #A37812 in the SPR work); also called HuSA
T2 sequence (P02768 25-609): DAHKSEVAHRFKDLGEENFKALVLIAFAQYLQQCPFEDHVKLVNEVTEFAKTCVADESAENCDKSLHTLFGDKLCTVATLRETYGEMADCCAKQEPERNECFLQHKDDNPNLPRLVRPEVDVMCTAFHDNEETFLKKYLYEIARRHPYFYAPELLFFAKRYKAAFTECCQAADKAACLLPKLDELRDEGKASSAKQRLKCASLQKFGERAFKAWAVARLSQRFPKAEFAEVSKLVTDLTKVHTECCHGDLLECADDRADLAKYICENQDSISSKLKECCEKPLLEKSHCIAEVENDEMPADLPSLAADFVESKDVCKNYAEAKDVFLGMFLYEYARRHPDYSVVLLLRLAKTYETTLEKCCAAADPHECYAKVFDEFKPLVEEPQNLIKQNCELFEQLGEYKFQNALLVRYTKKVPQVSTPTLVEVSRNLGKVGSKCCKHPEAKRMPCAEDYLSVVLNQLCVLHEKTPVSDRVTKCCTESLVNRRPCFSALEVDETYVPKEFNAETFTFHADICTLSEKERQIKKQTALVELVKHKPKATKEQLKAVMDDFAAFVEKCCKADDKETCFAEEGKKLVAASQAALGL
Protocol: (§1) For the HSA binding kinetic analysis, HSA (Sigma #A37812) was immobilized on a CM5 chip surface using amine coupling in 10 mM sodium acetate (pH 5.0) (Cytvia). […] The chip surface was regenerated with 3 mM NaOH for 20 seconds at a flow rate of 20 μl/min. The kinetic data was blank subtracted and fit to a 1:1 Langmuir binding model (BIAcore evaluation software; Cytiva).

[4] = molecular target: T1, human PD-L1-Fc (R&D Systems); assay: human PD-L1-Fc/HSA bridging ELISA: huPD-L1-Fc coated, AFFIMER titrated with 10 µM HSA, detection with HRP-conjugated anti-HSA antibody (the signal needs PD-L1 and HSA bound at once)
Protocol: After saturation with 5% casein/PBS buffer, the plates were washed and a dilution of AFFIMER® polypeptides or controls was incubated with HSA at a final concentration of 10 μM for 90 minutes. Plates were then washed, and a […] polyclonal antibody, anti-HSA (HRP-conjugated) (Abcam), was added for 90 minutes. After a last washing step, TMB was added for the development of the experiment and the plates were read at 450 nm. The EC₅₀ was then calculated using the interpolated non-linear four-parameters standard curve (FIG. 10).

[5] = molecular target: T1, human PD-L1-Fc (R&D Systems); assay: SPR (Biacore 8K): human PD-L1-Fc amine-coupled on a CM5 chip, AFFIMER as analyte
[6] = molecular target: T1, human PD-L1-Fc (R&D Systems); assay: SPR (Biacore) kinetics: human PD-L1-Fc immobilised on a CM5 chip, AFFIMER as analyte
[7] = molecular target: T3, PD-L1 on cells (NCI-H441 cells; aAPC PD-L1/CHO-K1 cells, Promega) (human, UniProt Q9NZQ7 19-290); assay: cell-based or functional assay
T3 sequence (Q9NZQ7 19-290): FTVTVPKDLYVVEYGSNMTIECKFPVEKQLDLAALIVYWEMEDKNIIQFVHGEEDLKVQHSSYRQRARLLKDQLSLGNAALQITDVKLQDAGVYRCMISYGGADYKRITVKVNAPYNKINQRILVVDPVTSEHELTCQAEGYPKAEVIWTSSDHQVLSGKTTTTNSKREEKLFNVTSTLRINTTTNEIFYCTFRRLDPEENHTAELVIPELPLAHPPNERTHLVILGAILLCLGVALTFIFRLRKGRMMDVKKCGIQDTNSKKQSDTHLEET

[8] = molecular target: T2, human serum albumin (HSA); assay: SPR, Biacore, HSA amine-coupled on CM5; E. coli-produced format
Protocol: as §1

[9] = molecular target: T3, PD-L1 on cells (NCI-H441 cells; aAPC …); assay: cell-based or functional assay; remark: listed apart in the source
[10] = molecular target: T1, human PD-L1-Fc (R&D Systems); assay: human PD-L1-Fc binding ELISA: huPD-L1-Fc coated, anti-cystatin A detection, with 10 µM HSA in the assay buffer
Protocol: (§2) Plates were washed and AFFIMER® polypeptides were detected using streptavidin-HRP for 30 min. After the last washing step, the TMB substrate was added for the development of the experiment and plates were read at 450 nm. The EC₅₀ was then calculated using the interpolated non-linear four-parameters standard curve.

[11] = molecular target: T2, human serum albumin (HSA); assay: SPR (Biacore 8K): HSA amine-coupled on a CM5 chip, AFFIMER as analyte, pH 7.4, 1:1 Langmuir fit
Protocol: as §1

[12] = molecular target: T4, murine serum albumin (MSA) (murine, UniProt P07724 25-608); assay: SPR, Biacore, MSA amine-coupled on CM5; E. coli-produced format
T4 construct: Bought reagent

[13] = molecular target: T2, human serum albumin (HSA); assay: HSA binding ELISA: HSA coated, bound AFFIMER detected with biotinylated anti-cystatin A antibody and streptavidin-HRP
Protocol: as §2

[14] = molecular target: T2, human serum albumin (HSA); assay: SPR (Biacore 8K): HSA amine-coupled on a CM5 chip, AFFIMER as analyte, pH 6.0, 1:1 Langmuir fit
Protocol: as §1

[15] = molecular target: T2, human serum albumin (HSA); assay: HSA binding ELISA: HSA coated, anti-cystatin A detection
[16] = molecular target: T1, human PD-L1-Fc (R&D Systems); assay: human PD-L1-Fc binding ELISA: huPD-L1-Fc coated, anti-cystatin A detection, no HSA in the assay buffer
Protocol: as §2

[17] = molecular target: T1, human PD-L1-Fc (R&D Systems); assay: SPR (Biacore) kinetics: human PD-L1-Fc immobilised on a CM5 chip, AFFIMER as analyte (column KD (pM), the same fit as the KD (M) column)
[18] = molecular target: T1, human PD-L1-Fc (R&D Systems); assay: SPR (Biacore) kinetics: human PD-L1-Fc immobilised on a CM5 chip, AFFIMER as analyte; remark: listed apart in the source

T1 sequence (Q9NZQ7 19-239 limits assumed): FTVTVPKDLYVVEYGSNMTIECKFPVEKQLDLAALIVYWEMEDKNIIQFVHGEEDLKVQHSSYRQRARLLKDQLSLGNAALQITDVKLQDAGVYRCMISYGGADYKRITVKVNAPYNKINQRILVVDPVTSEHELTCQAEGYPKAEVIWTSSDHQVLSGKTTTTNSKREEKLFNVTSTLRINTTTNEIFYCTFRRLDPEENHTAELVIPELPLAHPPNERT

B1: Clone 80 XT35 (anti-PD-L1 type III AFFIMER® XT in-line fusion dimer XT) (designed binder)
chain: MIPGGLSEAKPATPEIQEIVDKVKPQLEEKTGETYGKLEAVQYKTQVVRRKHFPQWPGTNYYIKVRAGDNKYMHLKVFKSLDLQPREVFQEDLVLTGYQVDKNKDDELTGFAEAAAKEAAAKEAAAKEAAAKEAAAKEAAAKMIPGGLSEAKPATPEIQEIVDKVKPQLEEKTGETYGKLEAVQYKTQVVRRKHFPQWPGTNYYIKVRAGDNKYMHLKVFKSLDLQPREVFQEDLVLTGYQVDKNKDDELTGFAEAAAKEAAAKEAAAKEAAAKEAAAKEAAAKMIPRGLSEAKPATPEIQEIVDKVKPQLEEKTNETYGKLEAVQYKTQVLANFFQRRWPGSTNYYIKVRAGDNKYMHLKVFNGPWKFRNTDRGADRVLTGYQVDKNKDDELTGFHHHHHH
notes: Made in E. coli; Two Clone 80 units are fused to one HSA-41; also called XT35_1; ILF trimer format
In the case of B1, the Kd [1] is reported as 0.0391 nM, the EC50 [2] is reported as 0.01 nM and the Kd [3] is reported as 9.09 nM. The koff [3] was 0.00359 s⁻¹, the kon [3] was 395000 M⁻¹ s⁻¹ and the EC50 [4] was 0.57 nM. For the same binder, the Kd [5] was 0.06 nM, the koff [5] was 7.12e-05 s⁻¹ and the kon [5] was 1.19e+06 M⁻¹ s⁻¹. It also gave a Kd [6] of 0.0796 nM, a koff [6] of 0.000123 s⁻¹ and a kon [6] of 1.55e+06 M⁻¹ s⁻¹. For the same binder, the “half-maximal concentration of PD-1/PD-L1 blockade (% of inhibition, NFAT-luciferase reporter cells; IC50)” value [7] was 33.4 nM, the Kd [8] was 9 nM and the “IC50 of PD-1/PD-L1 blockade (% of inhibition, Promega NFAT-luciferase reporter cells)” value [9] was 131 nM. For the same binder, the EC50 [10] was 0.04 nM, the Kd [11] was 6.13 nM and the koff [11] was 0.00589 s⁻¹. It also gave a kon [11] of 961000 M⁻¹ s⁻¹, a Kd [12] of 269 nM and an EC50 [13] of 0.03 nM. It also gave a Kd [14] of 4.44 nM, a koff [14] of 0.00302 s⁻¹ and a kon [14] of 681000 M⁻¹ s⁻¹. The EC50 [15] was 1.03 nM, the EC50 [16] was 0.036 nM and the Kd [17] was 0.0796 nM. For the same binder, the Kd [18] was 0.0686 nM, the koff [18] was 6.07e-05 s⁻¹ and the kon [18] was 884000 M⁻¹ s⁻¹.
